As usually defined, the Kd is the constant that tells how readily two partners part at equilibrium. Read a low Kd as higher affinity.

The assay addresses Wildtype His6-Gαi1 (UniProt P63096 1-354). The assay is described as follows: SPR. Background: In SPR one partner is held on a chip, and binding of the other changes the refractive index at the surface.

Sequence of Wildtype His6-Gαi1 (P63096 whole entry): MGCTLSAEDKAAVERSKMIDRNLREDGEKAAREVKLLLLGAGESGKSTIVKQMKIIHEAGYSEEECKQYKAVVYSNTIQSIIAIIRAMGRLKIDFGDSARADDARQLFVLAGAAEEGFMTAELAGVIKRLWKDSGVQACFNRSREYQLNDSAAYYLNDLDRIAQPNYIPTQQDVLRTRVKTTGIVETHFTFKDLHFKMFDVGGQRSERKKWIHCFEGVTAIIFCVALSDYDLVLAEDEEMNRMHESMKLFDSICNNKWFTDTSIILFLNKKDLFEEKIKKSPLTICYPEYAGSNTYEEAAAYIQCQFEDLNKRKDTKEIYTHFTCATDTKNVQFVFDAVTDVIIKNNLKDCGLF

B1: RGS21 (regulator of G protein signaling-21), wildtype, His6 tag cleaved (natural protein, human, UniProt Q2M5E4 1-152, looked up)
chain: MPVKCCFYRSPTAETMTWSENMDTLLANQAGLDAFRIFLKSEFSEENVEFWLACEDFKKTKNADKIASKAKMIYSEFIEADAPKEINIDFGTRDLISKNIAEPTLKCFDEAQKLIYCLMAKDSFPRFLKSEIYKKLVNSQQVPNHKKWLPFL
B1 showed a Kd of 57 nM. In other words, the double-digit nanomolar range.
